Read-outs that look alike come from different tables or passages of the source.
T1: RPL (Col-0)-His (Arabidopsis thaliana (Col-0), UniProt Q9LZM8 1-575)
T1 sequence: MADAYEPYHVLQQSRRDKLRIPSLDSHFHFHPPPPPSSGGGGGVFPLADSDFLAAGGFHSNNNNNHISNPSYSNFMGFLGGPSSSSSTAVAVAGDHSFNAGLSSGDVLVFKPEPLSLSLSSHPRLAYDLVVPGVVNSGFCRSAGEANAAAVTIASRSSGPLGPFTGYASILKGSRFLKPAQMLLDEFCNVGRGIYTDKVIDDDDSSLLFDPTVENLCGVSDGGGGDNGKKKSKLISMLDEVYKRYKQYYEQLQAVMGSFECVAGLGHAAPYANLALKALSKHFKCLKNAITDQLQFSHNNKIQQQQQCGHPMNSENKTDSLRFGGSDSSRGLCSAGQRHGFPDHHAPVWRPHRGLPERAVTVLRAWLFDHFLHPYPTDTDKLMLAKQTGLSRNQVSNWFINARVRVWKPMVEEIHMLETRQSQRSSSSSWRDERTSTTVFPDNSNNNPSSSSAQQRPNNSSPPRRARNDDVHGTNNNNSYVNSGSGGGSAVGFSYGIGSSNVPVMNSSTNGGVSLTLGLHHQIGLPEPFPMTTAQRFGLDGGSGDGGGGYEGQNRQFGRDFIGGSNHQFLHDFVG

B1: GH3.3-m2-65bp (dsDNA)
DNA 1: AATCAAAAGAAAAAAAGCTTTTAGTATTGAGTATTGACCGTCGCTATCGGTGACAGGCAGAGTCA
DNA 2: TGACTCTGCCTGTCACCGATAGCGACGGTCAATACTCAATACTAAAAGCTTTTTTTCTTTTGATT
B2: CHI-m2-65bp (dsDNA)
DNA 1: GCTATTTTTTTTTTTTTTAATTTTATTGATCAATCAACTGAATACTGAATACAAAAGAAAACCTG
DNA 2: CAGGTTTTCTTTTGTATTCAGTATTCAGTTGATTGATCAATAAAATTAAAAAAAAAAAAAATAGC
B3: GH3.3-m1-65bp (dsDNA)
DNA 1: CAAATTGAAAATGTCATTACCACTGATTAAAAAGGAATCAAAAGAAAAAAAGCTTTTAGTATTGA
DNA 2: TCAATACTAAAAGCTTTTTTTCTTTTGATTCCTTTTTAATCAGTGGTAATGACATTTTCAATTTG
B4: CHI-m1-65bp (dsDNA)
DNA 1: CCATTTTTGTTTTTTGTTTTTTCAGTGACAAACTCACATGGATTTCATTTCAGATTCAGTTAGAT
DNA 2: ATCTAACTGAATCTGAAATGAAATCCATGTGAGTTTGTCACTGAAAAAACAAAAAACAAAAATGG

Legend:
RPL (Col-0)-His [1] = biological target: T1, RPL (Col-0)-His; test: EMSA
RPL (Col-0)-His [2] = biological target: T1, RPL (Col-0)-His; test: EMSA; remark: listed apart in the source

Binder	binding result (RPL (Col-0)-His [1])	binding result (RPL (Col-0)-His [2])
B1	binds	
B2		binds
B3	binds	
B4		binds
